In patent US20240034757A1 (OXFORD UNIVERSITY INNOVATION, published 2024):

Experiments:
CCL5_HUMAN [1] = target: T1, CCL5_HUMAN (human, UniProt P13501 24-91); assay: BLI
T1 sequence: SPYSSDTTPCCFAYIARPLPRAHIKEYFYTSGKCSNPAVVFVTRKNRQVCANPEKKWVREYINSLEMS

CCL7_HUMAN [2] = target: T2, CCL7_HUMAN (human, UniProt P80098 24-99); assay: BLI
CCL8_HUMAN [3] = target: T3, CCL8_HUMAN (human, UniProt P80075 24-99); assay: BLI
T3 sequence (looked up): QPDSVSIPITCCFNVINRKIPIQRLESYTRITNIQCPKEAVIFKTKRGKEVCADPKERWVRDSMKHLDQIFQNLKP

CCL11_HUMAN = CCL11_HUMAN (human, UniProt P51671 24-97); assay: BLI
Sequence of CCL11_HUMAN (P51671 24-97 limits assumed): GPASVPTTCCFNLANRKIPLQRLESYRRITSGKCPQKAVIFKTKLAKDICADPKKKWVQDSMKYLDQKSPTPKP

CCL13_HUMAN = CCL13_HUMAN (human, UniProt Q99616 24-98); assay: BLI
Sequence of CCL13_HUMAN (Q99616 24-98 limits assumed): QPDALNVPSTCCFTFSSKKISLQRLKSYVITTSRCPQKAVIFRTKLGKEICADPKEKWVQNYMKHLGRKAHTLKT

CCL14_HUMAN = target: T4, CCL14_HUMAN (human, UniProt Q16627 22-93); assay: BLI
T4 sequence: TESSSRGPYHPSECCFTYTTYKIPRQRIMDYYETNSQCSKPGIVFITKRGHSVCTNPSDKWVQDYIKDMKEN

CCL15_HUMAN = target: T5, CCL15_HUMAN (human, UniProt Q16663 22-113); assay: BLI
T5 sequence: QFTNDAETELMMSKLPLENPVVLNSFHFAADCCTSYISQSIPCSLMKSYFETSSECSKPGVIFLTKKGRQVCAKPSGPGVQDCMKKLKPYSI

CCL16_HUMAN = target: T6, CCL16_HUMAN (human, UniProt O15467 24-120); assay: BLI
T6 sequence: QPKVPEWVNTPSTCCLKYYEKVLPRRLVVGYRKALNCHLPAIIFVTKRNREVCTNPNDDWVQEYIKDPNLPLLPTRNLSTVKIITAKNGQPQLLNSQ

CCL17_HUMAN = target: T7, CCL17_HUMAN (human, UniProt Q92583 24-94); assay: BLI
T7 sequence: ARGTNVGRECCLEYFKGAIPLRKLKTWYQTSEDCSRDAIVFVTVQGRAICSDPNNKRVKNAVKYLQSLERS

CCL18_HUMAN = target: T8, CCL18_HUMAN (human, UniProt P55774 21-89); assay: BLI
T8 sequence: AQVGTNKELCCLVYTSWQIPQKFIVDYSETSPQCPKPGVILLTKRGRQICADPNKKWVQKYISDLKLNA

CCL19_HUMAN = target: T9, CCL19_HUMAN (human, UniProt Q99731 22-98); assay: BLI
T9 sequence: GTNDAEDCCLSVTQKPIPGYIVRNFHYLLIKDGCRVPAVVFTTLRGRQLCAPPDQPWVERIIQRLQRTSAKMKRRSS

CCL20_HUMAN = CCL20_HUMAN (human, UniProt P78556 27-96); assay: BLI
Sequence of CCL20_HUMAN (P78556 27-96 limits assumed): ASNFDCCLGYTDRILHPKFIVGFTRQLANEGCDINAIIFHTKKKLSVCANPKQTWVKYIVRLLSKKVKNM

CCL21_HUMAN = target: T10, CCL21_HUMAN (human, UniProt O00585 24-134); assay: BLI
T10 sequence: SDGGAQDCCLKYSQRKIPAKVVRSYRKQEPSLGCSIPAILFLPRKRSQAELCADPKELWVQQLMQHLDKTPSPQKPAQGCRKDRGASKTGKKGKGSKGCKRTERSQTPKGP

CCL22_HUMAN = target: T11, CCL22_HUMAN (human, UniProt O00626 25-93); assay: BLI
T11 sequence: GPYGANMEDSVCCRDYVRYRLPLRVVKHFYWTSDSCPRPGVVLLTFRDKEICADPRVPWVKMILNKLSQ

CCL23_HUMAN = target: T12, CCL23_HUMAN (human, UniProt P55773 22-120); assay: BLI
T12 sequence: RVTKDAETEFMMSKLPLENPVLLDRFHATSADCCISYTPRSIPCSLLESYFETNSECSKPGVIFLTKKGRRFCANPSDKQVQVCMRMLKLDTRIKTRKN

CCL24_HUMAN = target: T13, CCL24_HUMAN (human, UniProt O00175 27-104); assay: BLI
T13 sequence: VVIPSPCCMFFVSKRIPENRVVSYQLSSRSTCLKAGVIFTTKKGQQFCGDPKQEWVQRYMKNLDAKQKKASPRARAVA

CCL27_HUMAN = target: T14, CCL27_HUMAN (human, UniProt Q9Y4X3 25-112); assay: BLI
T14 sequence: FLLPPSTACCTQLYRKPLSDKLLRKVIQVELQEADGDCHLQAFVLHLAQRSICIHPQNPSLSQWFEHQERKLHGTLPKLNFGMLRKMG

CCL1_HUMAN = target: T15, CCL1_HUMAN (human, UniProt P22362 24-96); assay: BLI
T15 sequence: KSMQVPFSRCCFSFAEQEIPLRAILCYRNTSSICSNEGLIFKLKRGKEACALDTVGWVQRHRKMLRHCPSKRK

CCL2_HUMAN [4] = target: T16, CCL2_HUMAN (human, UniProt P13500 24-99); assay: BLI
T16 sequence (P13500 24-99 limits assumed): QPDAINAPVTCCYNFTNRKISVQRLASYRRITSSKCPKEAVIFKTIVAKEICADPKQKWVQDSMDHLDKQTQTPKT

CCL3_HUMAN [5] = target: T17, CCL3_HUMAN (human, UniProt P10147 24-92); assay: BLI
T17 sequence: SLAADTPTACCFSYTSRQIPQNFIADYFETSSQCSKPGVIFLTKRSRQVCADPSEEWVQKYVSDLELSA

CCL3L1_HUMAN [6] = target: T18, CCL3L1_HUMAN (human, UniProt P16619 24-93); assay: BLI
T18 sequence: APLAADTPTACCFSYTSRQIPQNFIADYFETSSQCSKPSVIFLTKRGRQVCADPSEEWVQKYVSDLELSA

CCL4_HUMAN = target: T19, CCL4_HUMAN (human, UniProt P13236 24-92); assay: BLI
T19 sequence: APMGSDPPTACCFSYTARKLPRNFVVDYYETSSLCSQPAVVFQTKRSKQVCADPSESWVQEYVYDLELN

CCL4L1_HUMAN = target: T20, CCL4L1_HUMAN (human, UniProt Q8NHW4 24-92); assay: BLI
T20 sequence: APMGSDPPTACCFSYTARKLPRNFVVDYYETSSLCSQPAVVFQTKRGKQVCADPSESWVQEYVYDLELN

CCL5_HUMAN [7] = target: T1, CCL5_HUMAN; assay: cell-based or functional assay
CCL7_HUMAN [8] = target: T2, CCL7_HUMAN; assay: cell-based or functional assay
CCL8_HUMAN [9] = target: T3, CCL8_HUMAN; assay: cell-based or functional assay
CCL2_HUMAN [10] = target: T16, CCL2_HUMAN; assay: cell-based or functional assay
CCL3_HUMAN [11] = target: T17, CCL3_HUMAN; assay: cell-based or functional assay
CCL3L1_HUMAN [12] = target: T18, CCL3L1_HUMAN; assay: cell-based or functional assay
CCL5_HUMAN [13] = target: T1, CCL5_HUMAN; assay: BLI, evasin on nickel sensor
CXCL1_HUMAN = target: T21, CXCL1_HUMAN (human, UniProt P09341 35-107); assay: BLI, sensor already loaded with CCL5
T21 sequence: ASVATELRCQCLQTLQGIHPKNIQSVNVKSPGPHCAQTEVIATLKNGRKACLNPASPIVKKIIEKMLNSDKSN

CXCL8_HUMAN = target: T22, CXCL8_HUMAN (human, UniProt P10145 28-99); assay: BLI, sensor already loaded with CCL5
T22 sequence: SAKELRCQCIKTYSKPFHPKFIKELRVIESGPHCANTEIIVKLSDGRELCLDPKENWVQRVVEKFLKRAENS

T2 sequence (P80098 24-99 limits assumed): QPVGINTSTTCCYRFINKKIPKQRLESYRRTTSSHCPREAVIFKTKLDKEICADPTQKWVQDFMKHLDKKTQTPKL

B1: P991_AMBCA (other)
chain: ENGEGTTQPDYDNSTDYYNYEDFKCTCPAPHLNNTNGTVMKPIGCYYTCNVTRCTAPDTYPCYNLTEHQAKNLTTSPTTLCAVGNCDHGICVPNGTKELCFKAPNLEE
RT (CCL5_HUMAN [1]): 113 min
RT (CCL7_HUMAN [2]): 508 min
RT (CCL8_HUMAN [3]): 10.8 min
RT (CCL11_HUMAN): 24.9 min
RT (CCL13_HUMAN): 290 min
RT (CCL14_HUMAN): 192 min
RT (CCL15_HUMAN): 1.08 min
RT (CCL16_HUMAN): 102 min
RT (CCL17_HUMAN): 10.3 min
RT (CCL18_HUMAN): 185 min
RT (CCL19_HUMAN): 7 min
RT (CCL20_HUMAN): 7.03 min
RT (CCL21_HUMAN): 12.1 min
RT (CCL22_HUMAN): 16.8 min
RT (CCL23_HUMAN): 32.3 min
RT (CCL24_HUMAN): 7.07 min
RT (CCL27_HUMAN): 4.14 min
RT (CCL1_HUMAN): 5.37 min
RT (CCL2_HUMAN [4]): 4.17 min
RT (CCL3_HUMAN [5]): 42.6 min
RT (CCL3L1_HUMAN [6]): 52 min
RT (CCL4_HUMAN): 32.2 min
RT (CCL4L1_HUMAN): 42.8 min
IC50, THP1 cell migration (CCL5_HUMAN [7]): 1.84 nM
IC50, THP1 cell migration (CCL7_HUMAN [8]): 6.51 nM
IC50, THP1 cell migration (CCL8_HUMAN [9]): 2.1 nM
IC50, THP1 cell migration (CCL2_HUMAN [10]): 4.78 nM
IC50, THP1 cell migration (CCL3_HUMAN [11]): 2.9 nM
IC50, THP1 cell migration (CCL3L1_HUMAN [12]): 1.17 nM

B2: P1156:G4S:P1243 (designed binder)
chain: ADDDNELFTVQYCGMNCTKDEGGTWTGCTGKKEGCKCYHESGKNYGLCLSTEYTDFSQYGNPSDSEIEAAKPKRSDTLSHGGGGSRNHTEDNSTEYYDYEEARCACPARHLNNTNGTVLKLLGCHYFCNGTLCTAPDGYPCYNLTAQQVRTLTTYPNTSCAVGVCMKGTCVKNGTMEQCFKTP
notes: also called two-warhead evasin
binding result (CCL5_HUMAN [13]): binds
binding result (CXCL1_HUMAN): binds
binding result (CXCL8_HUMAN): binds
